Assay results taken from patent US20170174777A1 (PROTHENA BIOSCIENCE, published 2017).
Substitutions are numbered along the chain they refer to. Blank lines part the entries; values can stand above or below the binder they belong to.

Assays:
[1] = target: T1, wild-type human alpha-synuclein (human, UniProt P37840 1-140); test: ELISA on alpha-synuclein, OD against ng/mL of antibody
[2] = target: T1, wild-type human alpha-synuclein; test: SPR (Biacore), antibody captured on anti-human IgG chip, alpha-synuclein flowed over, 1:1 model global fit
Description: An anti-human IgG CMS Biacore chip was prepared following the protocol supplied by GE Healthcare.
Data were collected and double reference subtracted to account for drift and a small amount of nonspecific binding. The data were analyzed using Biacore evaluation software using a 1:1 model and a global fit.

binding result [1]: no binding (tested: 1000 ng/mL)
B1: humanized 5C1 antibody version H1L1 (antibody, V domains shown)
VH: QVQLVQSGAELKKPGSSVKVSCKASGYTFTNYWMNWVRQAPGQGLEWIGATNPNNGYTDYNQRFKDRATLTADKSTNTAYMELSSLRSEDTAVYYCARGGHLAYWGQGTLVTVSS
VL: DVVMTQSPLSLSVSPGEPASISCRSSQSLFHSKGNTYLHWYLQKPGQSPKLLINRVSNRFSGVPDRFSGSGSGTDFTLKISRVEAEDVGVYFCSQSAHVPWTFGGGTKVEIK
notes: Only variable regions are tied to this version

Kd [2]: 0.601 µM
B2: humanized 5C1 antibody version H4L4 (antibody, V domains shown)
VH: B1 VH with R98S
VL: B1 VL with V2I, K50Q, N54Y, F92Y
notes: Only variable regions are tied to this version; also called h5C1_H4L4

Kd [2]: 1.24 µM
B3: humanized 5C1 antibody version H3L4 (antibody, V domains shown)
VH: B1 VH with Y95F, R98S
VL: B1 VL with V2I, K50Q, N54Y, F92Y
notes: Only variable regions are tied to this version; also called h5C1_H3L4

Kd [2]: 1.06 µM
B4: humanized 5C1 antibody version H5L4 (antibody, V domains shown)
VH: B1 VH with A68V, L70I, R98S
VL: B1 VL with V2I, K50Q, N54Y, F92Y
notes: Only variable regions are tied to this version; also called h5C1_H5L4
